This passage reports Ki results from PMC9579014 (2022).

The chains are these.
B1: clitocypin 2 (protein)
chain: MASLEDGIYRLRAVTTHNPDPGVGGEYATVEGARRPVKAEPNTPPFFAAQAWQVTRNADGQYTIKYQGLNTPFEYGFSYDELEPNAPVIAGDPKEYILQLVPSTADVYIIRAPIQRIGVDVEVGVQGNTLVYKFFPVDGSGGDRPAWRFTRE
B2: clitocypin 2 (protein)
chain: B1 chain with A48E, A49Q, A51I
B3: macrocypin 1a (protein)
chain: GFEDGFYTILHLAEGQHPNSKIPGGMYASSKDGKDVPVTAEPLGPQSKIRWWIARDPQAGDDMYTITEFEIDNSIPGQWSRSPVETEVPVYLYDRIKAEETGYTCAWRIQPADHGADGVYHIVGNVRIGSTDWADLREEYGEPQVYMKPVPVIPNVYIPRWFILGYEE
B4: macrocypin 1a (protein)
chain: B3 chain with E70R, R95A
B5: macrocypin 1a (protein)
chain: B3 chain with E70R

Where a chain is given by its changes, count along the chain named.

One test deals with legumain (Homo sapiens) (UniProt Q99538).
Experiment: not given
Conditions: cited from earlier work.
Take Clitocypin (from UniProt Q9P4A2): the Ki – broadly, the dissociation constant of the complex between target and ligand, obtained from inhibition or displacement – was 21.5 nM.

The next test deals with T1, legumain AEP catalytic domain (Homo sapiens, UniProt Q99538).
T1 chain: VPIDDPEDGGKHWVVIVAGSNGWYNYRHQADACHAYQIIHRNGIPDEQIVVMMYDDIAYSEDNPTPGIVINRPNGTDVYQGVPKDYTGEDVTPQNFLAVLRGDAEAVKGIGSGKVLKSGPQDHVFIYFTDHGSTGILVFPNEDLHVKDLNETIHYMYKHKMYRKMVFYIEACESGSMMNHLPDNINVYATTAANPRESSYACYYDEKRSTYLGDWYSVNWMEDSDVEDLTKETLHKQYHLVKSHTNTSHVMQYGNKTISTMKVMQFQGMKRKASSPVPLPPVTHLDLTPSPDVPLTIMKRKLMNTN
The test is described as follows: enzyme inhibition assay (AAN-AMC).
Conditions: not given
For B1, the affinity corresponds to a Ki of 6690 nM. In turn, B2 came in with a Ki of 79 nM. Consider B3, for which the Ki worked out at 147 nM. On the same count and under the same terms, the value for B4 was 183 nM; that for B5 was 2.18 nM.
